# Assay results reported in US20050182242A1, “Global analysis of protein activities using proteome chips” (priority 2001, published 2005).
# How the values were obtained:
# Details in all cases: liposome binding signal on yeast proteome chip, Cy3-streptavidin detection
# [1] = test system: PI(3,4,5)P3 liposomes; experiment: Yeast proteome chip probed with PI(3,4,5)P3 liposomes
# From the text: (§1) To identify PI-binding proteins in yeast, liposomes were used as probes because the liposome provides the most relevant physiological condition to assay the interactors. Six types of liposomes were used. Each contains phosphatidylcholine (“PC”) with 1% (w/w) N-(biotinoyl)-1,2-dihexadecanoyl-sn-glycero-3-phosphoethanolamine, triethylammonium salt (biotin DHPE). The biotinylated lipid serves as a label that can be detected by Cy3-streptavidin (21). In addition to PC, the five other liposomes contain either 5% (w/w) PI(3)P, PI(4)P, PI(3,4)P2, PI(4,5)P2, or PI(3,4,5)P3 (FIG. 3A).
# (§2) The protein-liposome interaction was assayed as follows. Appropriate amounts of each lipid in chloroform were mixed and dried under nitrogen. The lipid mixture was resuspended in TBS buffer by vortexing. The liposomes were created by sonication. Blocked proteome chips were washed three to five times in PBS buffer, and the extra liquid on the glass surface was removed by tapping the slides vertically on a KIMWIPE™. 200 μl of liposome solution was added to the proteome chip and immediately covered by a hydrophobic plastic cover slip (GRACE BIO-LAB™, USA). After trapped air bubbles were removed, the chip was incubated in a humidity chamber at RT for one hour. To remove the cover slip, the chip was immersed into large volume of PBS buffer (50 ml), so that the slip would float away. The chip was then moved to a second PBS bath (>50 ml) and washed 3×5 min with shaking at RT. After removing extra liquid on the surface of the chip, about 100 μl of Cy3 or Cy5 conjugated streptavidin (PIERCE™, USA; 1:2000 to 1:4000 dilution) was added to the surface and covered by a hydrophobic plastic cover slip (GRACE BIO-LABS™, USA). The chip was incubated for greater than 30 min in the dark at RT. The chip was then washed as described above. To completely remove the liquid on the chip, the chip was spun to dryness at 1500-2000 rpm for 5-10 min at RT.
# (§3) • 1. S. Fields, Y. Kohara, D. J. Lockhart, Proc. Natl. Acad. Sci. 96, 8825 (1999); A. Goffeau et al., Science 274, 563 (1996). • 2 P. Ross-Macdonald et al., Nature 402, 413 (1999); J. L., DeRisi, V. R. Iyer, P. O. Brown, Science 278, 680 (1997); E. A. Winzeler et al., Science 285, 901 (1999). P. Uetz et al., Nature 403, 623 (2000); T. Ito et al., Proc. Natl. Acad. Sci. USA. 97, 1143 (2000) • 3 H. Zhu, M. Snyder, Curr. Opin. Chem. Biol. 5, 40 (2001). • 4 M. R. Martzen et al., Science 286, 1153 (1999). • 5 H. Zhu et al., Nat. Genet. 26, 283 (2000). • 6 G. MacBeath, S. L. Schreiber, Science 289, 1760 (2000). • 7 A. Caveman, J. Cell Sci. 113, 3543 (2000). • 8 P. Arenkov et al., Anal. Biochem 278, 123 (2000). • 9 D. A. Mitchell, T. K. Marshall, R. J. Deschenes, Yeast 9, 715 (1993). The expression vector pEGH was created by inserting an RGS-HisX6 epitope tag between the GST gene and the polycloning site of pEG(KG). The yeast ORFs were cloned using the strategy described previously (5), except every step was done in a 96-well format. Plasmid DNAs confirmed by DNA sequencing were reintroduced into both yeast (Y258) and E. coli (DH5a). […] 0.1 mM calcium was present in buffers in all subsequent steps. The chip was washed three times with PBS at RT. Cy3-conjugated streptavidin (Jackson IR, USA) (1:5000 dilution) was added to the chip and incubated for 30 min at RT. After extensive washing, the chip was spun dry and scanned using a microarray scanner; the data was subsequently acquired with the GENEPIX™ array densitometry software (Axon, USA). • 12 S. S. Hook, A. R. Means, Annu. Rev. Pharmacol. Toxicol.41, 471 (2001). • 13 M. S. Cyert, R. Kunisawa, D. Kaim, J. Thorner, Proc. Natl. Acad. Sci. USA 88, 7376 (1991). • 14 D. A. Stirling, K. A. Welch, M. J. Stark, EMBO J. 13, 4329 (1994). • 15 F. Bohl, Kruse, EMBO J. 19, 5514 (2000); E. Bertrand et al., Mol. Cell 2, 437 (1998). • 16 D. C. Winter, E. Y. Choe, R. Li, Proc. Nat. Acad Sci. USA 96, 7288 (1999). • 17 C.
# [2] = test system: PI(3,4)P2 liposomes; experiment: Yeast proteome chip probed with PI(3,4)P2 liposomes
# From the text: as §1, §2, §3
# [3] = test system: phosphatidylcholine (PC) liposomes; experiment: Yeast proteome chip probed with PC liposomes
# From the text: as §1, §2, §3
# [4] = test system: PI(4)P liposomes; experiment: Yeast proteome chip probed with PI(4)P liposomes
# From the text: as §1, §2, §3
# [5] = test system: PI(4,5)P2 liposomes; experiment: Yeast proteome chip probed with PI(4,5)P2 liposomes
# From the text: as §1, §2, §3
Molecule,"PI(3, 4, 5)P3 [1]","PI(3, 4)P2 [2]",PC [3],PI(4)P [4],"PI(4, 5)P2 [5]"
"PAT1: yeast GST-HisX6 fusion protein on proteome chip (protein, UniProt P25644 2-796, looked up, GST-HisX6 tag, yeast GST-HisX6 fusion protein on proteome chip) Deadenylation-dependent …: SFFGLENSGNARDGPLDFEESYKGYGEHELEENDYLNDETFGDNVQVGTDFDFGNPHSSGSSGNAIGGNGVGATARSYVAATAEGISGPRTDGTAAAGPLDLKPMESLWSTAPPPAMAPSPQSTMAPAPAPQQMAPLQPILSMQDLERQQRQMQQQFMNFHAMGHPQGLPQGPPQQQFPMQPASGQPGPSQFAPPPPPPGVNVNMNQMPMGPVQVPVQASPSPIGMSNTPSPGPVVGATKMPLQSGRRSKRDLSPEEQRRLQIRHAKVEKILKYSGLMTPRDKDFITRYQLSQIVTEDPYNEDFYFQVYKIIQRGGITSESNKGLIARAYLEHSGHRLGGRYKRTDIALQRMQSQVEKAVTVAKERPSKLKDQQAAAGNSSQDNKQANTVLGKISSTLNSKNPRRQLQIPRQQPSDPDALKDVTDSLTNVDLASSGSSSTGSSAAAVASKQRRRSSYAFNNGNGATNLNKSGGKKFILELIETVYEEILDLEANLRNGQQTDSTAMWEALHIDDSSYDVNPFISMLSFDKGIKIMPRIFNFLDKQQKLKILQKIFNELSHLQIIILSSYKTTPKPTLTQLKKVDLFQMIILKIIVSFLSNNSNFIEIMGLLLQLIRNNNVSFLTTSKIGLNLITILISRAALIKQDSSRSNILSSPEISTWNEIYDKLFTSLESKIQLIFPPREYNDHIMRLQNDKFMDEAYIWQFLASLALSGKLNHQRIIIDEVRDEIFATINEAETLQKKEKELSVLPQRSQELDTELKSIIYNKEKLYQDLNLFLNVMGLVYRDGEISELK",56.47,10.05,160.24,158.95,66.63
"YER046W: yeast GST-HisX6 fusion protein on proteome chip (protein, UniProt P40031 1-143, looked up, GST-His6 tag, yeast GST-HisX6 fusion protein on proteome chip) Sporulation-specific protein …: MGKNHFLKDFSALPEDVLIENERGITLLGYPLFSPKILLPHVDPPQFQRLNTENGSLIALSKNTISNFIELYPIDLSTERTAGSSSSQMTKWFVLMDYKEKYDIDDQGWCYSWNFNNSRWKSKNGLVRRRVWVRLPTTSHGLD",5.62,11.62,−18.20,19.16,6.31
"GFA1: yeast GST-HisX6 fusion protein on proteome chip (protein, UniProt P14742 2-717, looked up, GST-His6 tag, yeast GST-HisX6 fusion protein on proteome chip) Glutamine--fructose-6-phosphat …: CGIFGYCNYLVERSRGEIIDTLVDGLQRLEYRGYDSTGIAIDGDEADSTFIYKQIGKVSALKEEITKQNPNRDVTFVSHCGIAHTRWATHGRPEQVNCHPQRSDPEDQFVVVHNGIITNFRELKTLLINKGYKFESDTDTECIAKLYLHLYNTNLQNGHDLDFHELTKLVLLELEGSYGLLCKSCHYPNEVIATRKGSPLLIGVKSEKKLKVDFVDVEFPEENAGQPEIPLKSNNKSFGLGPKKAREFEAGSQNANLLPIAANEFNLRHSQSRAFLSEDGSPTPVEFFVSSDAASVVKHTKKVLFLEDDDLAHIYDGELHIHRSRREVGASMTRSIQTLEMELAQIMKGPYDHFMQKEIYEQPESTFNTMRGRIDYENNKVILGGLKAWLPVVRRARRLIMIACGTSYHSCLATRAIFEELSDIPVSVELASDFLDRKCPVFRDDVCVFVSQSGETADTMLALNYCLERGALTVGIVNSVGSSISRVTHCGVHINAGPEIGVASTKAYTSQYIALVMFALSLSDDRVSKIDRRIEIIQGLKLIPGQIKQVLKLEPRIKKLCATELKDQKSLLLLGRGYQFAAALEGALKIKEISYMHSEGVLAGELKHGVLALVDENLPIIAFGTRDSLFPKVVSSIEQVTARKGHPIIICNENDEVWAQKSKSIDLQTLEVPQTVDCLQGLINIIPLQLMSYWLAVNKGIDVDFPRNLAKSVTVE",−6.53,−8.63,−1.76,3.05,−7.62
"BPL1: yeast GST-HisX6 fusion protein on proteome chip (protein, UniProt P48445 1-690, looked up, GST-HisX6 tag, yeast GST-HisX6 fusion protein on proteome chip) Biotin--protein ligase: MNVLVYNGPGTTPGSVKHAVESLRDFLEPYYAVSTVNVKVLQTEPWMSKTSAVVFPGGADLPYVQACQPIISRLKHFVSKQGGVFIGFCAGGYFGTSRVEFAQGDPTMEVSGSRDLRFFPGTSRGPAYNGFQYNSEAGARAVKLNLPDGSQFSTYFNGGAVFVDADKFDNVEILATYAEHPDVPSSDSGKGQSENPAAVVLCTVGRGKVLLTGPHPEFNVRFMRKSTDKHFLETVVENLKAQEIMRLKFMRTVLTKTGLNCNNDFNYVRAPNLTPLFMASAPNKRNYLQEMENNLAHHGMHANNVELCSELNAETDSFQFYRGYRASYDAASSSLLHKEPDEVPKTVIFPGVDEDIPPFQYTPNFDMKEYFKYLNVQNTIGSLLLYGEVVTSTSTILNNNKSLLSSIPESTLLHVGTIQVSGRGRGGNTWINPKGVCASTAVVTMPLQSPVTNRNISVVFVQYLSMLAYCKAILSYAPGFSDIPVRIKWPNDLYALSPTYYKRKNLKLVNTGFEHTKLPLGDIEPAYLKISGLLVNTHFINNKYCLLLGCGINLTSDGPTTSLQTWIDILNEERQQLHLDLLPAIKAEKLQALYMNNLEVILKQFINYGAAEILPSYYELWLHSNQIVTLPDHGNTQAMITGITEDYGLLIAKELVSGSSTQFTGNVYNLQPDGNTFDIFKSLIAKKVQS",8.77,6.59,5.28,25.26,22.21
"RTG3: yeast GST-HisX6 fusion protein on proteome chip (protein, UniProt P38165 1-486, looked up, GST-His6 tag, yeast GST-HisX6 fusion protein on proteome chip) Retrograde regulation protein …: MMNNNESEAENQRLLDELMNQTKVLQETLDFSLVTPTPHHNDDYKIHGSAYPGGETPAQQHEKLSYINTHNSNDNNNLMGSQARSNSQTPTASTIYEEAESQSSYLDDMFRTSQGGRPVTQNSISSIGQGPLRSSYSMAYDSPVDRAMNTPLQQQEGLKAELPHDFLFQHGTDDTMYNLTDDLSSSLSSSINSDMMTPNTYSSSFSYNPQSLGPASVSSTYSPKVRSPSSSFRAGSFLSSSFRHGSINTPRTRHTSISSNMTENIGPGSVPKILGGLTSDEKLRRKREFHNAVERRRRELIKQKIKELGQLVPPSLLNYDDLGKQIKPNKGIILDRTVEYLQYLAEILEIQARKKKALLAKIKELEEKKSSVAALSPFTNNHHASSGQNNSENSEERIIDIRSVPNALMNEQNSKAELHNWEPPLYDSVGNHNHAGTMESHPHTNIHEELKEFLSGDLIEAEDNAKLMFGDDNSNPADYLLEFGSG",−5.29,0.16,5.58,12.19,12.41
